Results reported in PMC7092949 (Biochemical and Biophysical Research Communications, 2004).

Target: T1, HR-N (SN50) peptide of the SARS-CoV spike protein (SARS-CoV, UniProt P59594 903-952)
T1 peptide: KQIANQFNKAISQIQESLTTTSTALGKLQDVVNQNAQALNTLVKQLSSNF
Experiment: circular dichroism

LGDISGINASVVNIQKEIDRLNEVAKNLNESLIDLQELGK [HR-C (SC40) peptide of the SARS-CoV spike protein]: binds.
